Three sequences from patent publication US6849610 can be followed below.

For the data set, the system named is HCMV intact particles AD169 (Human cytomegalovirus AD169). The data set can be described thus: cell_activity. The note with it: 2'-NH2 on all pyrimidines, plaque formation, 1e5 PFU/ml.

In the case of “GGGAGACAAGAAUAAACGGUCAACUCGAGCCACCCCAUAACCCUCAAUACUCCAGGGAUUGGGUUCGACAUGAGGG [L19]”, the IC50 – broadly, the concentration at which inhibition is half-maximal – (viral yield IC50 35±7 nM) is 35 nM. This counts as double-digit nanomolar.

Sequence “GGGAGACAAGAAUAAACGGUCAAUGUGGGUCGUGUUAAGCUUCGGGCUUCGCGCAAAUCUGGGUUCGACAUGAGGG [L66]” returned a concentration for half-maximal inhibition (IC50) (viral yield IC50 18±4 nM) of 15 nM. That is a double-digit nanomolar value.

“GGGAGACAAGAAUAAACGGUCAAUUACGGUCACCUUACCCCUGGGUGUGCUCUUCCCGGUGGGUUCGACAUGAGGG [L13]” displayed an IC50 (viral yield IC50 100±20 nM) of 125 nM.
